Reference: patent publication US20220204643A1 (published 2022)

How the values were obtained:
Test in all cases: protein array
[1] = biological target: T1, proteasome 26S subunit, non-ATPase 4, transcript variant 2 (human, UniProt P55036 1-377)
T1 construct: on protein array; also called PSMD4

[2] = biological target: T2, Src like adaptor, transcript variant 1 (human, UniProt Q13239 2-276)
T2 construct: on protein array; also called SLA
T2 sequence: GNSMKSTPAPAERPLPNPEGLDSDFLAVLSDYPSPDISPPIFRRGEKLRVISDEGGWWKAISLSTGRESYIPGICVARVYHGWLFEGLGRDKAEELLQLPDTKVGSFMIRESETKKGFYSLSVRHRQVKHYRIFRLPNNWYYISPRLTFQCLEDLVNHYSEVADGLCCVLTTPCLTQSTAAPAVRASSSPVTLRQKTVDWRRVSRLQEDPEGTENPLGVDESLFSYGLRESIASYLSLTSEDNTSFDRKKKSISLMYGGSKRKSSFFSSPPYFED

[3] = biological target: T3, Zinc finger protein 699 (human, UniProt Q32M78 1-642)
T3 construct: on protein array; also called ZNF699

[4] = biological target: T4, nudix hydrolase 21 (human, UniProt O43809 2-227)
T4 construct: on protein array; also called NUDT21

[5] = biological target: T5, zinc finger protein 431, transcript variant 2 (human, UniProt Q8TF32 1-576)
T5 construct: on protein array; also called ZNF431

[6] = biological target: T6, keratin associated protein 12-3 (human, UniProt P60328 1-96)
T6 construct: on protein array; also called KRTAP12-3
T6 sequence: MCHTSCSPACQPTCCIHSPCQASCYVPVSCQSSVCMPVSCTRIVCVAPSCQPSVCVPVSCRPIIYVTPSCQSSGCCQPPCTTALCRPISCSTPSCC

[7] = biological target: T7, PAGE family member 2 (human, UniProt Q7Z2X7 1-111)
T7 construct: on protein array; also called PAGE2
T7 sequence: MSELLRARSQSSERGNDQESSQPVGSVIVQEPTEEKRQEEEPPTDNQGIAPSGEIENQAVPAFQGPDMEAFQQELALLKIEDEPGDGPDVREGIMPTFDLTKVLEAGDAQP

[8] = biological target: T8, enolase 2 (human, UniProt P09104 2-434)
T8 construct: on protein array; also called ENO2

[9] = biological target: T9, 5-hydroxytryptamine receptor 1E (human, UniProt P28566 1-365)
T9 construct: on protein array; also called HTR1E

[10] = biological target: T10, serpin family B member 6, transcript variant 2 (human, UniProt P35237 1-376)
T10 construct: on protein array; also called SERPINB6
T10 sequence: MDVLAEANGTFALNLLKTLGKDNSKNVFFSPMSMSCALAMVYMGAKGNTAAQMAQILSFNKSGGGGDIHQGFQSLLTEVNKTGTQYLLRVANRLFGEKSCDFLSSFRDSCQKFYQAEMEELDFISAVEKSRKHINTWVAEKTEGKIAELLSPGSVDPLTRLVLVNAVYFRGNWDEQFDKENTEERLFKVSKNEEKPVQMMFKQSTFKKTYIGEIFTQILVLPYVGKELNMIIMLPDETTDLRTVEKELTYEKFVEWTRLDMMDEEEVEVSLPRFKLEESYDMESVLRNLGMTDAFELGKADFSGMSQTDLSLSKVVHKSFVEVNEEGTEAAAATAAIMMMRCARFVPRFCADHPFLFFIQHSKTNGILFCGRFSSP

[11] = biological target: T11, Dpy-30 histone methyltransferase complex regulatory subunit (human, UniProt Q9C005 1-99)
T11 construct: on protein array

[12] = biological target: T12, rhophilin associated tail protein 1 like, transcript variant 2 (human, UniProt Q96C74 1-230)
T12 construct: on protein array; also called ROPN1L
T12 sequence: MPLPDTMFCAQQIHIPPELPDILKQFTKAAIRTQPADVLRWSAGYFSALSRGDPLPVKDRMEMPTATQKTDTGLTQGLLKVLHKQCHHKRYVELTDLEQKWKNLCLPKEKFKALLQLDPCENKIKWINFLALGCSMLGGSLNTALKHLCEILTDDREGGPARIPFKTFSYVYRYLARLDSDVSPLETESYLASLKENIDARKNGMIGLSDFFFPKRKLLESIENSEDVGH

[13] = biological target: T13, Jupiter microtubule associated homolog 2 (human, UniProt Q9H910 1-190)
T13 construct: on protein array; also called HN1L
T13 sequence: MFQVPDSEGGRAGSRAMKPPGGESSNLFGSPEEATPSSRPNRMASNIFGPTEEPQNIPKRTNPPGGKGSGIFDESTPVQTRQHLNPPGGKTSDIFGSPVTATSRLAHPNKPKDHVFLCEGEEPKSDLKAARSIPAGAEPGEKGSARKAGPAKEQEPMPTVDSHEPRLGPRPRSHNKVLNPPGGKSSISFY

[14] = biological target: T14, BTB domain containing 8 (human, UniProt Q5XKL5 1-374, limits assumed)
T14 construct: on protein array; also called BTBD8

[15] = biological target: T15, microfibril associated protein 3, transcript variant 3 (human, UniProt P55082 19-362)
T15 construct: on protein array; also called MFAP3

[16] = biological target: T16, microtubule associated protein RP/EB family member 2, transcript variant 1 (human, UniProt Q15555 1-327)
T16 construct: on protein array; also called MAPRE2

[17] = biological target: T17, interleukin 27 receptor subunit alpha (human, UniProt Q6UWB1 33-636)
T17 construct: on protein array; also called IL27RA
T17 sequence: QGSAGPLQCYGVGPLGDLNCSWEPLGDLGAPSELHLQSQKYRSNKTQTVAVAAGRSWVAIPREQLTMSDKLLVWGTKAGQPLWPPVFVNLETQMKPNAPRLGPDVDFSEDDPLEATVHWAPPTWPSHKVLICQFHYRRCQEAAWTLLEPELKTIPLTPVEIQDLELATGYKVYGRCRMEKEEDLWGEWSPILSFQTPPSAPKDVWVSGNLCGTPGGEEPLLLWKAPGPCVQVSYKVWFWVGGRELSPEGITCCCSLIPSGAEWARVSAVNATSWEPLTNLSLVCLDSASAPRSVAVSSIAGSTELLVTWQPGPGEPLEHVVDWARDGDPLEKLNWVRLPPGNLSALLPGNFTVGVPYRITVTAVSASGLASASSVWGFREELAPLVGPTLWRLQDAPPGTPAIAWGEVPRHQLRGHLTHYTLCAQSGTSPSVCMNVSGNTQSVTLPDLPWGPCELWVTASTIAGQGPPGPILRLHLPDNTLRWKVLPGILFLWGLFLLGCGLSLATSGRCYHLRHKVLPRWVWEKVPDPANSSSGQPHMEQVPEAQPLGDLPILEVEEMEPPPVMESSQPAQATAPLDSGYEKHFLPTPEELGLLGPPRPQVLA

T1 sequence (P55036 whole entry, change not shown): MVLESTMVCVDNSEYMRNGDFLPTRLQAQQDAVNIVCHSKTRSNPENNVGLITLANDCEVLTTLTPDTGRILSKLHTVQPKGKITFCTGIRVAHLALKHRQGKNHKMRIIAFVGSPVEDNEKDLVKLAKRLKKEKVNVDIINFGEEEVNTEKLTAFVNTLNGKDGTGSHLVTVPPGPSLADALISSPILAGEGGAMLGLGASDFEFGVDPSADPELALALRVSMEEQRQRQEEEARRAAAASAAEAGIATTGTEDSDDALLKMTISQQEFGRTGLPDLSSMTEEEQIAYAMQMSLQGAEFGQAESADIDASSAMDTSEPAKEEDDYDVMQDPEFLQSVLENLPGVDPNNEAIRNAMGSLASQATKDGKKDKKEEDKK
T16 sequence (Q15555 whole entry, change not shown): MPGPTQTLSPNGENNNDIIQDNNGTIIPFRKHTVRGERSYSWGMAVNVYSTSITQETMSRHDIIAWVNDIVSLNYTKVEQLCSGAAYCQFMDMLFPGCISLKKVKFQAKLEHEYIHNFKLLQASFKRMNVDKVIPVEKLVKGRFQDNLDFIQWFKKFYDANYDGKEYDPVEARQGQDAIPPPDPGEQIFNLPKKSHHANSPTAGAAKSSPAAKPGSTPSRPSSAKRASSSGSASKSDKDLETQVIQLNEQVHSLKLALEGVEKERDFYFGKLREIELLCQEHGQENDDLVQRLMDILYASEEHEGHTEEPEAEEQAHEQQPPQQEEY
T11 sequence (Q9C005 whole entry, one chain of several): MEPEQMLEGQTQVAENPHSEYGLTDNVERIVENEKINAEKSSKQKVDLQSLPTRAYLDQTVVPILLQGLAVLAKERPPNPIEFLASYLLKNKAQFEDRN
T8 sequence (P09104 2-434 limits assumed): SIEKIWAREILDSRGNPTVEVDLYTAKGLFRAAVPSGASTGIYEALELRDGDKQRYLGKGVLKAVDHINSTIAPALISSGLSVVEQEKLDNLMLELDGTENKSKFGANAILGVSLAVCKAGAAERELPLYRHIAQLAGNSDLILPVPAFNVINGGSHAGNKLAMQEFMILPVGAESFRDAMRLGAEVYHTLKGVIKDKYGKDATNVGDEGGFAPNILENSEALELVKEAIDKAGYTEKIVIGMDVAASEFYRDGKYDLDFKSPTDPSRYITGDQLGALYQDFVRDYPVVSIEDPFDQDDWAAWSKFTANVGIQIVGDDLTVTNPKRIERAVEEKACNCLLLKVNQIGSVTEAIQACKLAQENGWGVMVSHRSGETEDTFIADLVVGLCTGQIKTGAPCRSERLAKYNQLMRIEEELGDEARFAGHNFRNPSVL
T14 sequence (Q5XKL5 other isoform, or with tags, fused parts or gaps limits assumed): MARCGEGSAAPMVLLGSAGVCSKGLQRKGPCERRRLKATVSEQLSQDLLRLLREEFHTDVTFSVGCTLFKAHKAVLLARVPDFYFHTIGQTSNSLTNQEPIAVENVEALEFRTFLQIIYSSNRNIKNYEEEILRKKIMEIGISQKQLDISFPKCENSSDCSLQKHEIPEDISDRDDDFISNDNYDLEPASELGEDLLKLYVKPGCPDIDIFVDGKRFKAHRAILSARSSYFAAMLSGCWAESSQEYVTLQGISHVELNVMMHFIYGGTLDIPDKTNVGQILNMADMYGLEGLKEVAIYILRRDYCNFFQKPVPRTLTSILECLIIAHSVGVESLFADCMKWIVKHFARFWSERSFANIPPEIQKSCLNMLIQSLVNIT
T9 sequence (P28566 whole entry): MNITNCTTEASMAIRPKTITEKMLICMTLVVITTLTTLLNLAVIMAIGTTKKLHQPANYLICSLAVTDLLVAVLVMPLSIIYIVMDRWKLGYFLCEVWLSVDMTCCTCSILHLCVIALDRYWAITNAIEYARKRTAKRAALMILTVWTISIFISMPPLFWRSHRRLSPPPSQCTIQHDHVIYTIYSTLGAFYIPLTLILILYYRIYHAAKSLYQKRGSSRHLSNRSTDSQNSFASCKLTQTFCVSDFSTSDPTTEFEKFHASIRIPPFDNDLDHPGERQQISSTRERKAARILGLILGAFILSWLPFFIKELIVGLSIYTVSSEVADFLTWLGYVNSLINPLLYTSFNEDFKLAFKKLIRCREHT
T4 sequence (O43809 2-227 limits assumed): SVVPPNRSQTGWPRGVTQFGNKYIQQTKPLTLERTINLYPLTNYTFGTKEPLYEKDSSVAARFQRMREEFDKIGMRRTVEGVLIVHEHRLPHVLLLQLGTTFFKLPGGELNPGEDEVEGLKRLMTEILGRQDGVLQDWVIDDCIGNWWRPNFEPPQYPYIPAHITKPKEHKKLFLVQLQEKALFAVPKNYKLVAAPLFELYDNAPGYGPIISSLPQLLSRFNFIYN
T3 sequence (Q32M78 whole entry): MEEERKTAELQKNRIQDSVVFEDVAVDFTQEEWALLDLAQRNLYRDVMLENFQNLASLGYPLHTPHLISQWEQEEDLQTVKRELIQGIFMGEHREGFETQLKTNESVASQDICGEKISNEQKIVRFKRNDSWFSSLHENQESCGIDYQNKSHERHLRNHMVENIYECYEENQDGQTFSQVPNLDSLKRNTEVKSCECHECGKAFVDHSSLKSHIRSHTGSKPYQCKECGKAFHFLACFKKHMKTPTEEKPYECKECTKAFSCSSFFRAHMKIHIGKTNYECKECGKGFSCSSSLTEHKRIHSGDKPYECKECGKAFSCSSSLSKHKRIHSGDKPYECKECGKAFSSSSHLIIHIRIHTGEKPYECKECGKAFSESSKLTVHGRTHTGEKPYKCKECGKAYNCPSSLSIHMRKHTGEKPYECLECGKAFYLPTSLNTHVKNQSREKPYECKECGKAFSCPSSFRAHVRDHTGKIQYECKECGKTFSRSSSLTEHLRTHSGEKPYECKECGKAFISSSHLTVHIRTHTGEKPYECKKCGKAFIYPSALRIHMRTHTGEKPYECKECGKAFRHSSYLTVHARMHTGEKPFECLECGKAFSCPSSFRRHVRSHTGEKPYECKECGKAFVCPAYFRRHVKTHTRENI
T5 sequence (Q8TF32 other isoform, or with tags, fused parts or gaps mutant limits assumed): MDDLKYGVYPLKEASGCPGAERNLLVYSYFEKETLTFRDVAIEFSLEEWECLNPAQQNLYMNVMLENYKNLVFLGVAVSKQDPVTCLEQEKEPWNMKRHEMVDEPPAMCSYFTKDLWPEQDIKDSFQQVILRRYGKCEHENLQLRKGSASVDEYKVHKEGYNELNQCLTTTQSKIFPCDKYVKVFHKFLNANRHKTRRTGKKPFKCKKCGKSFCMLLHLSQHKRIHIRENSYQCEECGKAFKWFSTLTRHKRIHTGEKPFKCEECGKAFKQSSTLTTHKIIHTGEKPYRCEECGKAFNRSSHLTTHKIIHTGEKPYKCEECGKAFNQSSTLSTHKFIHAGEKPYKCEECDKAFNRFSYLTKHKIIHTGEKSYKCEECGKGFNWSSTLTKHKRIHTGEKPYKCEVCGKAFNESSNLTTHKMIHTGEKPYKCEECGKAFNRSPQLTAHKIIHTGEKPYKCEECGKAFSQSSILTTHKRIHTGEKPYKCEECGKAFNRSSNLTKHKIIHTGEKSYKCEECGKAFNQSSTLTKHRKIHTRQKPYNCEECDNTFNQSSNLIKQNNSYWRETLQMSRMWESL
T15 sequence (P55082 19-362 limits assumed, change not shown): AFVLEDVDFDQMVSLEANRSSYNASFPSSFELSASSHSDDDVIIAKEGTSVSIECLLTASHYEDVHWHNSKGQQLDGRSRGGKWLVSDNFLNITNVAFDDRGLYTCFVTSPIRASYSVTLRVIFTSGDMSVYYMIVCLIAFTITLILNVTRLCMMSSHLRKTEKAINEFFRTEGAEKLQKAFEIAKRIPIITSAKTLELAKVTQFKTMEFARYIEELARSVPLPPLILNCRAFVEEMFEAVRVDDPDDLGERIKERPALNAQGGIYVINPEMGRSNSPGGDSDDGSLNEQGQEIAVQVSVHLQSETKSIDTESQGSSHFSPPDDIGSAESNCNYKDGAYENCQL

B1: TMEL1032 (antibody, V domains shown)
VH: QVQLVQSGAEVRKPGASVKVSCKASGYTFTTYYIHWVRQAPGQGLEWMGLINPNGGTTNYAQKFQGRLSMTTDTSTNTVYMELSSLRSEDTAVYYCARKLMSGIVSRGWFDPWGQGTLVTVSS
VL: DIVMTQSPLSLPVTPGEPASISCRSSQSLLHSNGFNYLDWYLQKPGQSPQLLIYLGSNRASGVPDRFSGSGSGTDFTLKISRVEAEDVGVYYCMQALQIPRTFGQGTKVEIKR
notes: VH/VL tied via antigen in summary, not by name in this stretch
- binding result [1]: binds
- binding result [2]: binds

B2: TMEL1033 (antibody, V domains shown)
VH: PVQLQESGPGLVKPSETLSLTCTVSGGSVSSGSYYWSWIRQPPGKGLEWIGYIYYSGSTNYNPSLKSRVTISVDTSKNQFSLKLSSVTAADTAVYYCARDRGDYVTHWFDPWGQGTLVTVSS
VL: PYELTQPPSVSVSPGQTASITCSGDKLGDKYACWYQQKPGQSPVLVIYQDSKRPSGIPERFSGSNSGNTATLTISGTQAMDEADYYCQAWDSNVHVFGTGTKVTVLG
notes: as for B1
- binding result [3]: binds
- binding result [4]: binds
- binding result [5]: binds

B3: TMEL1035 (antibody, V domains shown)
VH: QVQLVESGGGVVQPGRSLRLSCAASGFTFSSYAMHWVRQAPGKGLEWVAVISYDGSNKYYADSVKGRFTISRDNSKNTLYLQMNSLRAEDTAVYYCASPIAVAAPFAYWGQGTLVTVSS
VL: VSSELTQDPAVSVALGQTVRITCQGDSLRSYYASWYQQKPGQAPVLVIYGKNNRPSGIPDRFSGSSSGNTASLTITGAQAEDEADYYCNSRDSSGNLYVFGTGTKVTVLG
notes: as for B1
- binding result [6]: binds
- binding result [7]: binds

B4: TMEL1037 (antibody, V domains shown)
VH: PLQLQESGPGLVKPSETLSLTCTVSGGSISSSSYYWGWIRQSPGKGLEWMGSIYYSGSTYYNPSLKSRVTISVDTSKNQFSLNLSSVTAADTAVYYCARHDYRNYFDYWGQGTLVTVSS
VL: not shown
notes: as for B1
- binding result [8]: binds

B5: TBLA1013 (antibody, V domains shown)
VH: EVQLLESGGGLVQPGGSLTLSCVGSRFTFSSYAMNWVRQSPGRGLEWVASISATTGSTYYTDSVEGRFTISRDNSRDTLYLQMNSLRADDTALYYCVRSFVGAVPAYPNFDFWGPGTLVTVSS
VL: PSGLTQPPSASGTPGQRVTMSCSGSSSNIGRNYVYWYQQLPGAAPKLLIYRDNQRPSGVPDRFSGSKSGTSASLAISGLRSEDEADYYCAAWDDNVSGPGFGAGTRLTVLG
notes: VH/VL only
- binding result [9]: binds

B6: TMEL1040 (antibody, V domains shown)
VH: EVQLVQSGAEVKKPGESLKISCKGSGYSFTTYWIAWVRQMPGKGLEWMGIIYPADSDTRYSPSFQGQVTMSADQSINTAYLQWSSLKASDTAMYYCARRGREFDYWGQGTLLTVSS
VL: QSALTQPASVSGSPGQSITISCTGTSSDVGSYNLVSWYQQHPGKAPKLMIYEGSKRPSGVSNRFSGSKSGNTASLTISGLQAEDEADYYCCSYAGSSTPWVFGGGTKLTVL
notes: as for B1
- binding result [10]: binds

B7: TMEL1041 (antibody, V domains shown)
VH: EVQLLESGGGLVQPGGSLRLSCAASGFTFRIYAMSWVRQAPGKGLEWVSAISYSGNTTYYADSVKGRFTISRDNSKNTLYLQINNLRAEDTAIYYCAIQEKRELQLRRELDNYWGQGTLVTVSS
VL: PYELTQPPSVSLSPGQTARITCSGDALPKKYAYWYQQKSGQAPVLVIYEDSKRPSGIPERFSGSSSGTTATLTISGAQVDDEGDYYCYSPDSSGNVWVFGGGTKLTVLG
notes: as for B1
- binding result [11]: binds
- binding result [12]: binds

B8: TMES1002 (antibody, V domains shown)
VH: QVQVVESGGGLVKPGGSLRLSCAVSGLDFRDYYVNWIRQAPGKGLEWLSYITSPGGHTSYSDSVKGRFTISRDNAKNSVYLQMDSLTVEDTAVYFCAIKEGYGLSDWGQGTLVTVSS
VL: EIVLTQSPVTLSLSPGERATLSCRASQSVSSSYIAWYQQKPGQAPRLLIYGASTRATGIPDRFSGSGSGTDFTLTISRLEPEDCAVFYCQQYGSSHYTFGQGTKLEIKR
notes: as for B1
- binding result [13]: binds
- binding result [14]: binds

B9: TBRE1002 (antibody, V domains shown)
VH: QVQLVESGGGVVQPGGSLRLSCGASGFAFSSNGMHWVRQAPGKGLEWVAFIHYDGRNKHYTDSVKGRFAISVDDSKTTLYLQMSSLKTEDTAVYYCVKDSRVTGQSSGYIFDSWGQGTLVTVSS
VL: ETVMTQSPATLSVSPGDRATLSCRASQNVNFNLAWYQQKPGQAPRLLIYDASTRATGIPARFSGSASGTEFTLTINSLQSEDFAVYYCQQYNNWWTFGQGTKLEIKR
notes: VH/VL only
- binding result [15]: binds

B10: TMES1004 (antibody, V domains shown)
VH: QVQLVQSGAEVKKPGASVKISCKASGYTFTSHAIHWVRQAPGQTFEWLGWINPVNGVTKYSQTFQDRVTIVRDKSATTTYMDLSGLTFEDTAMYYCARVLDFYGSSVLDYWGQGTLVTVSS
VL: QSALTQPASVSGSPGQSITISCTGTSSDIGTYNLVSWYQQRPGKAPKLIIYDVIKRPSGISDRFSGSKSDNMASLTISGLQAEDEAHYYCCSYRSSTAPVVFGGGTKVTVL
notes: as for B1
- binding result [16]: binds

B11: TOVA1002 (antibody, V domains shown)
VH: QVQLVESGGGVVQPGRSLRLSCAASGFTFSNFAMHWVRQAPGKGLEWVVVISSDGSNKNYADSVKGRFTISRDNSKNTLYLQMNSLRAEDTAVYYCARDLGVGSTTYWGQGTLVTVSS
VL: SYVLTQPPSVSVAPGQTARITCGGNNIGSKSVHWYQQKPGQAPVLVVYDDSDRPSGIPERFSGSNSGNTATLTISRVEAGDEADYYCQVWDGYSDPLVFGGGTKLTVLG
notes: as for B1
- binding result [17]: binds
